Data reported in the supplement of paper PMC11246515.
± gives the standard deviation of the averaged measurements.

Test: total protein half-life in vivo (active degradation + dilution); higher = more stable protein
[1] = E. coli NCM3722 delta-clpP delta-lon delta-hslV, growth: N-lim chemostat, doubling time 6 h
[2] = E. coli NCM3722 delta-clpP, growth: N-lim chemostat, doubling time 6 h
[3] = E. coli NCM3722 delta-hslV, growth: N-lim chemostat, doubling time 6 h
[4] = E. coli NCM3722 delta-lon, growth: N-lim chemostat, doubling time 6 h
[5] = E. coli NCM3722 delta-smpB, growth: N-lim chemostat, doubling time 6 h
[6] = wild type E. coli NCM3722, growth: C-lim chemostat, doubling time 3 h
[7] = wild type E. coli NCM3722, growth: C-lim chemostat, doubling time 12 h
[8] = wild type E. coli NCM3722, growth: N-lim chemostat, doubling time 6 h
[9] = wild type E. coli NCM3722, growth: N-lim chemostat, doubling time 12 h
[10] = wild type E. coli NCM3722, growth: P-lim chemostat, doubling time 6 h
[11] = wild type E. coli NCM3722, growth: P-lim chemostat, doubling time 12 h
[12] = wild type E. coli NCM3722, growth: C-lim chemostat, doubling time 6 h

Row | Sequence | total protein half-life in vivo [1] | total protein half-life in vivo [2] | total protein half-life in vivo [3] | total protein half-life in vivo [4] | total protein half-life in vivo [5] | total protein half-life in vivo [6] | total protein half-life in vivo [7] | total protein half-life in vivo [8] | total protein half-life in vivo [9] | total protein half-life in vivo [10] | total protein half-life in vivo [11] | total protein half-life in vivo [12]
1 | MAVHLLIVDALNLIRRIHAVQGSPCVETCQHALDQLIMHSQPTHAVAVFDDENRSSGWRHQRLPDYKAGRPPMPEELHDEMPALRAAFEQRGVPCWSTSGNEADDLAATLAVKVTQAGHQATIVSTDKGYCQLLSPTLRIRDYFQKRWLDAPFIDKEFGVQPQQLPDYWGLAGISSSKVPGVAGIGPKSATQLLVEFQSLEGIYENLDAVAEKWRKKLETHKEMAFLCRDIARLQTDLHIDGNLQQLRLVR | 4.94 ± 0.096 h | 4.23 ± 0.28 h | 4.29 h | 5.14 ± 0.59 h | 3.86 ± 0.59 h | 2.66 ± 0.54 h | 10.7 ± 0.93 h | 4.2 ± 0.5 h | 8.02 h | 5.06 ± 0.52 h | 10.7 ± 1.7 h | –
2 | MKILVYGINYSPELTGIGKYTGEMVEWLAAQGHEVRVITAPPYYPQWQVGENYSAWRYKREEGAATVWRCPLYVPKQPSTLKRLLHLGSFAVSSFFPLMAQRRWKPDRIIGVVPTLFCAPGMRLLAKLSGARTVLHIQDYEVDAMLGLGLAGKGKGGKVAQLATAFERSGLHNVDNVSTISRSMMNKAIEKGVAAENVIFFPNWSEIARFQHVADADVDALRNQLDLPDNKKIILYSGNIGEKQGLENVIEAADRLRDEPLIFAIVGQGGGKARLEKMAQQRGLRNMQFFPLQSYDALPALLKMGDCHLVVQKRGAADAVLPSKLTNILAVGGNAVITAEAYTELGQLCETFPGIAVCVEPESVEALVAGIRQALLLPKHNTVAREYAERTLDKENVLRQFINDIRG | 4.84 h | – | – | – | 5.37 h | – | – | – | – | – | – | –
3 | MTAELLVNVTPSETRVAYIDGGILQEIHIEREARRGIVGNIYKGRVSRVLPGMQAAFVDIGLDKAAFLHASDIMPHTECVAGEEQKQFTVRDISELVRQGQDLMVQVVKDPLGTKGARLTTDITLPSRYLVFMPGASHVGVSQRIESESERERLKKVVAEYCDEQGGFIIRTAAEGVGEAELASDAAYLKRVWTKVMERKKRPQTRYQLYGELALAQRVLRDFADAELDRIRVDSRLTYEALLEFTSEYIPEMTSKLEHYTGRQPIFDLFDVENEIQRALERKVELKSGGYLIIDQTEAMTTVDINTGAFVGHRNLDDTIFNTNIEATQAIARQLRLRNLGGIIIIDFIDMNNEDHRRRVLHSLEQALSKDRVKTSVNGFSALGLVEMTRKRTRESIEHVLCNECPTCHGRGTVKTVETVCYEIMREIVRVHHAYDSDRFLVYASPAVAEALKGEESHSLAEVEIFVGKQVKVQIEPLYNQEQFDVVMM [P0A9J0] | 3.85 ± 0.3 h | 2.58 ± 0.087 h | 3.04 ± 0.55 h | 3.28 ± 0.38 h | 2.62 ± 0.21 h | 3.09 ± 0.69 h | 8.57 ± 0.57 h | 2.6 ± 0.14 h | 3.45 ± 0.073 h | 5.69 ± 0.42 h | 10.35 ± 0.087 h | 4.36 ± 0.16 h
4 | MLAFIRFLFAGLLLVISHAFAATVQDEHGTFTLEKTPQRIVVLELSFADALAAVDVIPIGIADDNDAKRILPEVRAHLKPWQSVGTRAQPSLEAIAALKPDLIIADSSRHAGVYIALQQIAPVLLLKSRNETYAENLQSAAIIGEMVGKKREMQARLEQHKERMAQWASQLPKGTRVAFGTSREQQFNLHTQETWTGSVLASLGLNVPAAMAGASMPSIGLEQLLAVNPAWLLVAHYREESIVKRWQQDPLWQMLTAAQKQQVASVDSNTWARMRGIFAAERIAADTVKIFHHQPLTVVK | – | – | – | – | – | – | 7.06 h | – | – | – | – | 5.67 h
5 | MKFVSFNINGLRARPHQLEAIVEKHQPDVIGLQETKVHDDMFPLEEVAKLGYNVFYHGQKGHYGVALLTKETPIAVRRGFPGDDEEAQRRIIMAEIPSLLGNVTVINGYFPQGESRDHPIKFPAKAQFYQNLQNYLETELKRDNPVLIMGDMNISPTDLDIGIGEENRKRWLRTGKCSFLPEEREWMDRLMSWGLVDTFRHANPQTADRFSWFDYRSKGFDDNRGLRIDLLLASQPLAECCVETGIDYEIRSMEKPSDHAPVWATFRR | 5.619 ± 0.036 h | 5.58 ± 0.29 h | 5.75 ± 0.011 h | 6.04 ± 1.2 h | 5.27 ± 0.3 h | 3.14 ± 0.45 h | 10.9 ± 0.79 h | 5.46 ± 0.4 h | 10.8 ± 0.2 h | 5.61 ± 0.2 h | 11.9 ± 1.3 h | 5.863 ± 0.013 h
6 | MTTQRSPGLFRRLAHGSLVKQILVGLVLGILLAWISKPAAEAVGLLGTLFVGALKAVAPILVLMLVMASIANHQHGQKTNIRPILFLYLLGTFSAALAAVVFSFAFPSTLHLSSSAGDISPPSGIVEVMRGLVMSMVSNPIDALLKGNYIGILVWAIGLGFALRHGNETTKNLVNDMSNAVTFMVKLVIRFAPIGIFGLVSSTLATTGFSTLWGYAQLLVVLVGCMLLVALVVNPLLVWWKIRRNPFPLVLLCLRESGVYAFFTRSSAANIPVNMALCEKLNLDRDTYSVSIPLGATINMAGAAITITVLTLAAVNTLGIPVDLPTALLLSVVASLCACGASGVAGGSLLLIPLACNMFGISNDIAMQVVAVGFIIGVLQDSCETALNSSTDVLFTAAACQAEDDRLANSALRN [P0AGE4] | 5.56 ± 0.69 h | 5.78 h | 6.04 h | 5.28 h | 6.21 ± 0.49 h | 3.36 h | 12.3 ± 0.23 h | 5.94 ± 0.44 h | 11.6 h | 5.5355 ± 0.00083 h | 10.7 ± 0.53 h | 5.87 ± 0.55 h
